Measured values from the supplement of paper PMC7877785.
± gives the uncertainty stated by the source.

Experiment: self-splicing fitness, log relative to wild type (ln ratio); higher = more splicing; Tetrahymena group I intron in knt gene, E. coli kanamycin selection, DiMSum; sequences stand for … in CUCUCU…GGAGGGAAAAGUUAUCAGGCAUGCACCUGGUAGCUAGUCUUUAAACCAAUAGAUUGCAUCGGUUUAAAAGGCAAGACCGUCAAAUUGCGGGAAAGGGGUCAACAGCCGUUCAGUACCAAGUCUCAGGGGAAACUUUGAGAUGGCCUUGCAAAGGGUAUGGUAAUAAGCUGACGGACAUGGUCCUAACCACGCAGCCAAGUCCUAAGUCAACAGAUCUUCUGUUGAUAUGGAUGCAGUUCACAGACUAAAUGUCGGUCGGGGAAGAUGUAUUCUUCUCAUAAGAUAUAGUCGGACCUCUCCUUAAUGGGAGCUAGCGGAUGAAGUGAUGCAACACUGGAGCCGCUGGGAACUAAUUUGUAUGCGAAAGUAUAUUGAUUAGUUUUGGAGUACUCGUGGUCG
Summary of the method: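 Six replicate transformations of E. coli BL21(DE3) with a pET-22b(+) library were grown overnight at 37°C or 30°C. The library randomised all eight P1ex-region intron nucleotides, the intron lying in the knt kanamycin-resistance gene, and plates were LB agar with or without 25 μg/mL kanamycin plus 100 μg/mL carbenicillin, 50 μM IPTG and 0.2% rhamnose. Pooled colonies were amplicon-sequenced on an Illumina HiSeq 2500, and fitness is the DiMSum error-weighted combination of wild-type-normalised replicate fold changes, kanamycin versus none.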

Sequence | self-splicing fitness (ln) (30 °C) | self-splicing fitness (ln) (37 °C)
CACGAGCAAUAUUACGGUUA | -2.76 ± 0.17 | -2.48 ± 0.16
CACUAGCAAUAUUACGAGUG | -3.45 ± 0.2 | -2.73 ± 0.22
UAUCAGCAAUAUUACGGAUC | -0.475 ± 0.11 | -0.265 ± 0.13
CCUGAGCAAUAUUACGUACC | -0.796 ± 0.25 | -2.27 ± 0.37
GUCCAGCAAUAUUACGGCAG | – | -2.06 ± 0.2
ACCAAGCAAUAUUACGCGGU | -3.54 ± 0.12 | -2.84 ± 0.16
UAUUAGCAAUAUUACGUCCU | -1.69 ± 0.2 | -0.635 ± 0.21
GGUGAGCAAUAUUACGUAGU | -3.37 ± 0.23 | -2.1 ± 0.29
CGUAAGCAAUAUUACGGUCC | -2.31 ± 0.18 | -2.18 ± 0.24
GUCGAGCAAUAUUACGACGG | – | -1.72 ± 0.43
CUCCAGCAAUAUUACGUGGA | -3.5 ± 0.18 | -2.7 ± 0.16
UCAGAGCAAUAUUACGCCAA | -2.84 ± 0.25 | -1.74 ± 0.29
AUGUAGCAAUAUUACGGAGG | -3.57 ± 0.23 | -2.57 ± 0.23
AUCCAGCAAUAUUACGUGAU | -2.15 ± 0.1 | -1.04 ± 0.12
GCGCAGCAAUAUUACGGGCG | -3.71 ± 0.47 | -3.03 ± 0.4
UCCGAGCAAUAUUACGGCCA | -0.297 ± 0.1 | -0.233 ± 0.12
UGGCAGCAAUAUUACGAUCC | -0.653 ± 0.3 | -0.564 ± 0.29
AGAUAGCAAUAUUACGACUU | -0.125 ± 0.065 | -0.304 ± 0.086
UCUCAGCAAUAUUACGUGGA | -3.7 ± 0.29 | -1.05 ± 0.12
ACACAGCAAUAUUACGCAAC | -5.33 ± 0.36 | -1.88 ± 0.17
CGAUAGCAAUAUUACGGCUG | -0.568 ± 0.1 | 0.209 ± 0.15
CCGAAGCAAUAUUACGCCGG | – | -2.21 ± 0.46
AGUAAGCAAUAUUACGCUAC | -0.918 ± 0.3 | –
UCAUAGCAAUAUUACGUCCU | -3.7 ± 0.25 | -1.18 ± 0.14
CAACAGCAAUAUUACGGGUC | -4.17 ± 0.17 | -2.66 ± 0.14
AACAAGCAAUAUUACGACGU | 0.394 ± 0.063 | 0.441 ± 0.07

Sequence | self-splicing fitness (ln) (30 °C) | self-splicing fitness (ln) (37 °C)
UUUGAGCAAUAUUACGGCCG | -2.02 ± 0.35 | –
GUUGAGCAAUAUUACGCUAU | -2.06 ± 0.35 | -2.66 ± 0.46
GGGUAGCAAUAUUACGUAAU | -0.889 ± 0.085 | -0.379 ± 0.11
UUGCAGCAAUAUUACGGCAC | -0.586 ± 0.17 | -0.741 ± 0.19
GAAGAGCAAUAUUACGCCGU | -2.88 ± 0.44 | -2.96 ± 0.43
AGACAGCAAUAUUACGUAGA | -2.6 ± 0.081 | -2.5 ± 0.11
AUACAGCAAUAUUACGGAAG | -3.36 ± 0.14 | -2.21 ± 0.14
GUCAAGCAAUAUUACGCUAG | -2.83 ± 0.15 | -2 ± 0.14
UAGAAGCAAUAUUACGCGGU | -4.94 ± 0.42 | -2.37 ± 0.24
UGUUAGCAAUAUUACGUUUU | -3.9 ± 0.33 | -2.19 ± 0.24
CCAAAGCAAUAUUACGACUC | -2.53 ± 0.27 | -2.03 ± 0.43
AAGUAGCAAUAUUACGUUUU | -2.71 ± 0.13 | -2.17 ± 0.17
GUACAGCAAUAUUACGCCUA | -1.06 ± 0.099 | -0.254 ± 0.09
CUUGAGCAAUAUUACGGUCU | -3.17 ± 0.29 | -3.61 ± 0.37
AUCAAGCAAUAUUACGGAAC | -4.1 ± 0.15 | -2.3 ± 0.12
AGCGAGCAAUAUUACGCCCG | – | -0.109 ± 0.42
CUUGAGCAAUAUUACGAUUG | -2.49 ± 0.13 | -1.32 ± 0.14
CUUCAGCAAUAUUACGGAUU | -2.13 ± 0.18 | -1.75 ± 0.16
UAGUAGCAAUAUUACGUAAU | -2.43 ± 0.13 | -2.19 ± 0.13
GAGCAGCAAUAUUACGCGCA | -0.638 ± 0.1 | 0.461 ± 0.12
UGGAAGCAAUAUUACGAUGU | -1.75 ± 0.21 | -2 ± 0.22
UGCAAGCAAUAUUACGAGGU | -3.41 ± 0.23 | -2.26 ± 0.17
AACUAGCAAUAUUACGUACG | -1.15 ± 0.079 | -0.237 ± 0.096
CCUUAGCAAUAUUACGCUAG | -3.32 ± 0.29 | -2.04 ± 0.38
UUCGAGCAAUAUUACGACGA | -0.356 ± 0.3 | -0.0591 ± 0.21
CGACAGCAAUAUUACGCUCG | -3.34 ± 0.37 | -2.18 ± 0.24

Sequence | self-splicing fitness (ln) (30 °C) | self-splicing fitness (ln) (37 °C)
UCAGAGCAAUAUUACGUCGC | -3.79 ± 0.37 | -2.41 ± 0.35
AGAAAGCAAUAUUACGCUCU | -3.2 ± 0.37 | -2.58 ± 0.49
ACUGAGCAAUAUUACGGGGA | -2.48 ± 0.17 | -1.92 ± 0.18
CCUCAGCAAUAUUACGCAUU | -3.81 ± 0.19 | -2.3 ± 0.22
AUCGAGCAAUAUUACGUGAA | -2.75 ± 0.14 | -1.83 ± 0.16
GACGAGCAAUAUUACGUGGU | -2.84 ± 0.1 | -2.77 ± 0.14
UGGGAGCAAUAUUACGCUUU | – | -2.01 ± 0.31
CAAGAGCAAUAUUACGGACA | -3.46 ± 0.26 | -2 ± 0.32
AGGAAGCAAUAUUACGGACU | -0.293 ± 0.11 | -0.668 ± 0.097
UGGGAGCAAUAUUACGGUUU | -3.58 ± 0.16 | -3.35 ± 0.23
GCCGAGCAAUAUUACGCGGG | -4.07 ± 0.2 | -2.3 ± 0.18
GCCUAGCAAUAUUACGAGCC | -1.8 ± 0.15 | -1.67 ± 0.23
GCCAAGCAAUAUUACGGUCG | -3.19 ± 0.13 | -2.27 ± 0.17
UACCAGCAAUAUUACGUCUG | -3.46 ± 0.13 | -2.46 ± 0.12
UGGUAGCAAUAUUACGUAGG | -1.25 ± 0.14 | -1.35 ± 0.25
UCAGAGCAAUAUUACGUUAC | -3.21 ± 0.37 | -1.55 ± 0.29
GUUCAGCAAUAUUACGCUUG | -1.54 ± 0.081 | -0.171 ± 0.089
CAUUAGCAAUAUUACGCAAG | -1.45 ± 0.1 | -0.813 ± 0.13
AGGCAGCAAUAUUACGCCAG | -0.444 ± 0.14 | -0.82 ± 0.25
GCAUAGCAAUAUUACGGGGC | -3.43 ± 0.23 | -2.72 ± 0.32
AUGAAGCAAUAUUACGACGC | 0.112 ± 0.13 | -0.034 ± 0.17
GUAGAGCAAUAUUACGUCGG | -1.87 ± 0.15 | -1.61 ± 0.22
UAGGAGCAAUAUUACGGUGA | – | -1.08 ± 0.27
CUUAAGCAAUAUUACGGCCU | -2.74 ± 0.25 | -3.1 ± 0.44
CAGAAGCAAUAUUACGCAGG | -2.75 ± 0.15 | -1.73 ± 0.13
